According to article PMC12676389:

Tests used:
[1] = target: AP-7-168-bound β2AR dimer (construct PN1) (UniProt P07550); experiment: SEC; AP-bound dimer with nucleotide-free Gs; peak fractions on SDS-PAGE, ratio of β2AR to Gα estimated on gels
[2] = target: β2-adrenergic receptor, construct PN1 (monomeric receptor) (UniProt P07550); experiment: BLI; as a16, monomeric β2AR with 10 μM AP
[3] = target: β2-adrenergic receptor, construct PN1 (monomeric receptor) (UniProt P07550); experiment: BLI; FLAG-tagged β2AR (monomer or AP-bound dimer) captured with 10 μM Iso on SA tips by biotinylated anti-FLAG M1 Fab; Gs 30 nM to 10 μM with 10 μM GDP and 0.1% BSA in NH buffer, 0.01% LMNG, 0.001% CHS; 30°C; KD from equilibrium responses

stoichiometry N [1]: 2 β2AR per Gα | Kd [2]: 1700 nM | Kd [3]: 960 nM
Substance: heterotrimeric Gs (Gαsβ1γ2) (from UniProt P63092 1-394; P62873 1-340; P59768 1-71) (complex)
